The target in assay [1] is T1, human PD-L1 on CHO-K1-huPD-L1 cells (human, UniProt Q9NZQ7 19-290). The assay is described as follows: cell-based or functional assay.
The target of assay [2] is T2, recombinant human PD-L1 protein (Item No. 10084-H08H, Sino Biological) (human, UniProt Q9NZQ7 19-238).
T2 construct: Bought protein; also called huPD-L1; human PD-L1 antigen
The assay is described as follows: SPR, humanization screening.

The target of assay [3] is T2, recombinant human PD-L1 protein (Item …). The assay is described as follows: ELISA, humanization screening.
The target in assay [4] is T1, human PD-L1 on CHO-K1-huPD-L1 cells. The assay is described as follows: flow cytometry on CHO-K1-huPD-L1 cells; parent chimeric antibody. The protocol:
CHO-K1-huPD-L1 cells overexpressing human PD-L1 were plated in a 96-well plate at 2×10⁴/well, and the 3-fold serial gradient dilutions of the samples to be tested were added at 20 μl/well, and co-incubated with the cells at room temperature for 30 min. The cells were washed by centrifugation to remove unbound antibodies, and 20 μl of R-Phycoerythrin AffiniPure Goat Anti-Human IgG, Fcγ Fragment Specific (Item No.: 109-115-098, Jackson ImmunoResearch; diluted with 1% (w/v) BSA-PBS at 1:200) fluorescent secondary antibodies were added to each well, and incubated for 15 min. The cells were then washed twice, resuspended in 100 μl of 1% (w/v) BSA-PBS, and detected for their fluorescence intensity at 585 nm by flow cytometry (BD, FACS Cantoll) under 488 nm excitation.

The target in assay [5] is T3, human PD-L1-moFc recombinant protein (human).
T3 construct: also called free PD-L1
The assay is described as follows: flow cytometry, blocking of PD-L1-moFc binding to CHO-K1-huPD-1 cells. The protocol: The antibodies to be tested were diluted with 3-fold gradient, added at 20 μL/well into the 96-well plate with the antigen added, mixed well, and incubated at room temperature for 15 min. CHO-K1-huPD-1 cells overexpressing human PD-1 were added at 2×10⁴/well into the 96-well plate pre-incubated with antigen-antibody, mixed well, and incubated at room temperature for 15 min. The mixture was centrifuged at 300 g for 5 min, the supernatant was removed, and the cells were washed twice with FACS buffer. Anti-moFc-Alexa 488 (Item No.: 115-545-071, Jackson) secondary antibodies were diluted at 1:300, added, mixed well, and incubated at room temperature for 15 min. The cells were washed three times and measured on instrument for the fluorescence intensity on their surfaces.

Assay [6] has as its target T2, recombinant human PD-L1 protein (Item …). The assay is described as follows: SPR, Biacore 8K, antibody captured as ligand, PD-L1 analyte, 1:1 model.
Assay [7] shares this target. The assay is described as follows: SPR, Biacore 8K, antibody captured on anti-human chip, huPD-L1 analyte, 1:1 model. The protocol:
The Anti-Human Capture-CM5 chips (Item No.: BR-1005-30, GE) were prepared according to the coupling method of the Human Antibody Captrue Kit (Item No.: BR-1008-39, GE) and the amino coupling kit (Item No.: BR-1000-50, GE). The chips were equilibrated at room temperature for 20-30 min and assembled into the Biacore 8K instrument. B5D1 was diluted to the experimental working concentration with the equilibrium buffer. The antigen was diluted to 50 nM with the equilibrium buffer, and then diluted to give samples with 7 concentration gradients by 3× serial dilution, and 2 samples with zero concentration (i.e. the equilibrium buffer) and a duplicate sample with one concentration (typically, a duplicate sample with the minimum concentration) were set. According to the antibody, the antigen huPD-L1 (Item No.: 10084-H08H, Sino Biological), and the regeneration order, the samples with 10 antigen concentrations (2 with zero concentration, 7 with gradient concentrations and 1 with duplicate concentration) were subject to experimental analysis with an antigen injection flow rate of 30 μl/min, the binding time of 120 seconds, and the dissociation time of 600 seconds.

T2 sequence (Q9NZQ7 19-238 limits assumed): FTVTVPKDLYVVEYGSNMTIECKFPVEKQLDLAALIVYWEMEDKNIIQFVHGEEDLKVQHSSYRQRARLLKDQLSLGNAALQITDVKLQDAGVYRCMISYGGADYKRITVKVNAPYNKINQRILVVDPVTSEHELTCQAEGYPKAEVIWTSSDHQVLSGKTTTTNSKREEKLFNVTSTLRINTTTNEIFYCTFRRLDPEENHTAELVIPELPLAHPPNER
T1 sequence (Q9NZQ7 19-290): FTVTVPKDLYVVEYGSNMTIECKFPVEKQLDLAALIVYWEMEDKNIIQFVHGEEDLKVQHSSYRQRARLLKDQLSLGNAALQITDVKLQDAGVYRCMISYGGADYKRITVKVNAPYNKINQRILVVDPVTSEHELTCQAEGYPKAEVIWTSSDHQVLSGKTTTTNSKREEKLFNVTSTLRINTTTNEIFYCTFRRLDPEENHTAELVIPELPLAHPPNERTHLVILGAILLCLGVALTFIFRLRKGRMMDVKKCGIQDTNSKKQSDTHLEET
T3 sequence (chain, as listed by the source limits assumed): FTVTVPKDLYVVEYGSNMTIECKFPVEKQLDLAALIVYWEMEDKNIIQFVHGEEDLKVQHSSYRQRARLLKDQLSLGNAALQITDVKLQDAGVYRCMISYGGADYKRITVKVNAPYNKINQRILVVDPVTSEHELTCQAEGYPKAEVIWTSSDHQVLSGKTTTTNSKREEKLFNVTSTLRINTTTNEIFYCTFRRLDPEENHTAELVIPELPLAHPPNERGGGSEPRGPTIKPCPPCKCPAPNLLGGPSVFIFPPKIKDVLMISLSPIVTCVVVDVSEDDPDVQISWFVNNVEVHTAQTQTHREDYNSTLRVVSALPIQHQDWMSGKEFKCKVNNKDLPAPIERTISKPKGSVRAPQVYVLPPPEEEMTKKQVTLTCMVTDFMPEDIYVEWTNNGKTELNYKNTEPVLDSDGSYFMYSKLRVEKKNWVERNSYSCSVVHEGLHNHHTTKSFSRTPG

B1: chimeric antibody 900245 (antibody, V domains shown)
VH: QIQLQQSGPELVKPGASVKISCKASGYTFTDYYINWVKQRPGQGLEWIGWIYLGSGNAKYNEKFKGKATLTVDTSSSTAYMHLSSLTSEDSAVYFCARCVGTYWYFDVWGAGTTVTVSS
VL: QILLTQSPATMSASPGEKVTMTCSASSSVSYMHWYQQKPGSSPKPWIYDTSNVASGFPARFSGSGSGTSYSLIISSMEAEDAATYYCHQRSSYPWTFGGGTKLEIK
notes: also called parent chimeric antibody; anti-PD-L1 human-mouse chimeric antibody
As for B1, the “EC50, T cell activation (NFAT-luciferase RLU, Jurkat-NFAT-PD-1-5B8 effector cells with CHO-K1-OS8-PD-L1-8D6 target cells)” value in assay [1] stood at 0.287 µg/mL. The Kd in assay [2] was 0.72 nM; in assay [6] it was 0.346 nM; in assay [7], 0.0773 nM. In addition, the values for the EC50 in assay [3] and in assay [4] were 0.499 µg/mL and 0.125 µg/mL, respectively. In addition, the IC50 in assay [5] stood at 2.84 µg/mL. Further, the koff in assay [6] was 0.000127 s⁻¹; in assay [7] it was 9.54e-05 s⁻¹. Further, the kon in assay [6] worked out at 368000 M⁻¹ s⁻¹; in assay [7], 1.24e+06 M⁻¹ s⁻¹.

Source of the values: US20250074988A1 (SHANGHAI HUAOTA BIOPHARMACEUTICAL, published 2025).
